This data set concerns the target OCT4 K222F (Homo sapiens, UniProt Q01860 1-360, K222F). The experiment in a line: EMSA; homodimer; significantly increased vs WT and other variants; LightShift EMSA: 20 ul, 1.5 ug His-OCT4, 0.5 ug His-SOX2 where used, 50 nM biotin-dsDNA, 1 ul poly(dI-dC), 1x loading buffer (salt and pH not stated), 30 min, 25 C. Particulars: protein: recombinant; tags: His (pET28a); label: 5'-biotin on sense strand; blunt.

Chain of OCT4 K222F (Q01860 whole entry K222F): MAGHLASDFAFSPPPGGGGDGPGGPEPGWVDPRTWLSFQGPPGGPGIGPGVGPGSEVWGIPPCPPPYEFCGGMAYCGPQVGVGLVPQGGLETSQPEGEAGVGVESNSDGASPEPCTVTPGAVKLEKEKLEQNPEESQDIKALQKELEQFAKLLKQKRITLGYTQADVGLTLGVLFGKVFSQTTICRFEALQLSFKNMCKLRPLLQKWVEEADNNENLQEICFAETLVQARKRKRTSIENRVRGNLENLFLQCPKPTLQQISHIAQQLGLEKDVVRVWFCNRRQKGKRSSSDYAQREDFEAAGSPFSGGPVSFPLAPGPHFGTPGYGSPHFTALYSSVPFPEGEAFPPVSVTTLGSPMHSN

B1: PORE probe (dsDNA)
DNA 1: TATACTAAGCAATTCTTCATTGATTTGAAATGCAAATTTGACTGGGCACCCTGTATCTT
DNA 2: AAGATACAGGGTGCCCAGTCAAATTTGCATTTCAAATCAATGAAGAATTGCTTAGTATA
With B1, the binding result is given as “binds”.

For the origin of these results see paper PMC8119428, “LSD1-mediated demethylation of OCT4 safeguards pluripotent stem cells by maintaining the transcription of PORE-motif-containing genes”.
